Earlier results, collected in article PMC3736882.

Target: Factor VIII (Homo sapiens) (UniProt P00451)
Sequence of UniProt P00451 (P00451 760-1332): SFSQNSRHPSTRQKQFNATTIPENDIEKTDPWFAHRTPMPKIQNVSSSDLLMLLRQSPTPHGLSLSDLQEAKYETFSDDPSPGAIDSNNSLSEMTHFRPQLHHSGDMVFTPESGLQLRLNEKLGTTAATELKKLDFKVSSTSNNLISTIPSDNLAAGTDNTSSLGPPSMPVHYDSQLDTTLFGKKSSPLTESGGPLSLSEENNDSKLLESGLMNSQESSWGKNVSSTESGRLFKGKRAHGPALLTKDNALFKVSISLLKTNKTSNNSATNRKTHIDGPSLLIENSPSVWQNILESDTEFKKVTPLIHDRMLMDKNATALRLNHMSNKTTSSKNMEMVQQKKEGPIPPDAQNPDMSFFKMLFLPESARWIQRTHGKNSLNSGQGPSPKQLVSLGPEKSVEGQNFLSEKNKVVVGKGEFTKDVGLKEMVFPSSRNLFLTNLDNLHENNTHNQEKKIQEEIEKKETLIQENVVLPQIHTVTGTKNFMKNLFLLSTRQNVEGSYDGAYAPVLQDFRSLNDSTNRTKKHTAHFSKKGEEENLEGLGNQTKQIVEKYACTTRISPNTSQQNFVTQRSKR

Kd: < 1 nM
Substance: von Willebrand factor (from UniProt P04275)
